From IntAct's records for PubMed 30126976

B1: Monocarboxylate transporter 2 (Homo sapiens), O60669 (parent)
chain: MPPMPSAPPVHPPPDGGWGWIVVGAAFISIGFSYAFPKAVTVFFKEIQQIFHTTYSEIAWISSIMLAVMYAGGPVSSVLVNKYGSRPVVIAGGLLCCLGMVLASFSSSVVQLYLTMGFITGLGLAFNLQPALTIIGKYFYRKRPMANGLAMAGSPVFLSSLAPFNQYLFNTFGWKGSFLILGSLLLNACVAGSLMRPLGPNQTTSKSKNKTGKTEDDSSPKKIKTKKSTWEKVNKYLDFSLFKHRGFLIYLSGNVIMFLGFFAPIIFLAPYAKDQGIDEYSAAFLLSVMAFVDMFARPSVGLIANSKYIRPRIQYFFSFAIMFNGVCHLLCPLAQDYTSLVLYAVFFGLGFGSVSSVLFETLMDLVGAPRFSSAVGLVTIVECGPVLLGPPLAGKLVDLTGEYKYMYMSCGAIVVAASVWLLIGNAINYRLLAKERKEENARQKTRESEPLSKSKHSEDVNVKVSNAQSVTSERETNI
B2: Solute carrier family 15 member 5 (Homo sapiens), A6NIM6 (parent)
chain: MSVTGFTITDEKVHLYHSIEKEKTVRHIGDLCSSHSVKKIQVGICLLLVELCERFTFFEVVCNMIPFCTIKLGYHNCQAAILNLCFIGTSILTPVFVRWLTDVYLGRNKLVYICLFLHFLGTALLSVVAFPLEDFYLGTYHAVNNIPKTEQHRLFYVALLTICLGIGGVRAIVCPLGAFGLQEYGSQKTMSFFNWFYWLMNLNATIVFLGISYIQHSQAWALVLLIPFMSMLMAVITLHMIYYNLIYQSEKRCSLLTGVGVLVSALKTCHPQYCHLGRDVTSQLDHAKEKNGGCYSELHVEDTTFFLTLLPLFIFQLLYRMCIMQIPSGYYLQTMNSNLNLDGFLLPIAVMNAISSLPLLILAPFLEYFSTCLFPSKRVGSFLSTCIIAGNLFAALSVMIAGFFEIHRKHFPAVEQPLSGKVLTVSSMPCFYLILQYVLLGVAETLVNPALSVISYRFVPSNVRGTSMNFLTLFNGFGCFTGALLVKLVYLISDGNWFPNTLNKGNLESFFFFLASLTLLNVLGFCSVSQRYCNLNHFNAQNIRGSNLEETLLLHEKSLKFYGSIQEFSSSIDLWETAL
B3: Colorectal mutant cancer protein (Homo sapiens), P23508 (parent)
chain: MNSGVAMKYGNDSSAELSELHSAALASLKGDIVELNKRLQQTERERDLLEKKLAKAQCEQSHLMREHEDVQERTTLRYEERITELHSVIAELNKKIDRLQGTTIREEDEYSELRSELSQSQHEVNEDSRSMDQDQTSVSIPENQSTMVTADMDNCSDLNSELQRVLTGLENVVCGRKKSSCSLSVAEVDKHIEQLTTASEHCDLAIKTVEEIEGVLGRDLYPNLAEERSRWEKELAGLREENESLTAMLCSKEEELNRTKATMNAIREERDRLRRRVRELQTRLQSVQATGPSSPGRLTSTNRPINPSTGELSTSSSSNDIPIAKIAERVKLSKTRSESSSSDRPVLGSEISSIGVSSSVAEHLAHSLQDCSNIQEIFQTLYSHGSAISESKIREFEVETERLNSRIEHLKSQNDLLTITLEECKSNAERMSMLVGKYESNATALRLALQYSEQCIEAYELLLALAESEQSLILGQFRAAGVGSSPGDQSGDENITQMLKRAHDCRKTAENAAKALLMKLDGSCGGAFAVAGCSVQPWESLSSNSHTSTTSSTASSCDTEFTKEDEQRLKDYIQQLKNDRAAVKLTMLELESIHIDPLSYDVKPRGDSQRLDLENAVLMQELMAMKEEMAELKAQLYLLEKEKKALELKLSTREAQEQAYLVHIEHLKSEVEEQKEQRMRSLSSTSSGSKDKPGKECADAASPALSLAELRTTCSENELAAEFTNAIRREKKLKARVQELVSALERLTKSSEIRHQQSAEFVNDLKRANSNLVAAYEKAKKKHQNKLKKLESQMMAMVERHETQVRMLKQRIALLEEENSRPHTNETSL
B4: Ribosomal protein S6 kinase alpha-1 (Homo sapiens), Q15418 (parent)
chain: MPLAQLKEPWPLMELVPLDPENGQTSGEEAGLQPSKDEGVLKEISITHHVKAGSEKADPSHFELLKVLGQGSFGKVFLVRKVTRPDSGHLYAMKVLKKATLKVRDRVRTKMERDILADVNHPFVVKLHYAFQTEGKLYLILDFLRGGDLFTRLSKEVMFTEEDVKFYLAELALGLDHLHSLGIIYRDLKPENILLDEEGHIKLTDFGLSKEAIDHEKKAYSFCGTVEYMAPEVVNRQGHSHSADWWSYGVLMFEMLTGSLPFQGKDRKETMTLILKAKLGMPQFLSTEAQSLLRALFKRNPANRLGSGPDGAEEIKRHVFYSTIDWNKLYRREIKPPFKPAVAQPDDTFYFDTEFTSRTPKDSPGIPPSAGAHQLFRGFSFVATGLMEDDGKPRAPQAPLHSVVQQLHGKNLVFSDGYVVKETIGVGSYSECKRCVHKATNMEYAVKVIDKSKRDPSEEIEILLRYGQHPNIITLKDVYDDGKHVYLVTELMRGGELLDKILRQKFFSEREASFVLHTIGKTVEYLHSQGVVHRDLKPSNILYVDESGNPECLRICDFGFAKQLRAENGLLMTPCYTANFVAPEVLKRQGYDEGCDIWSLGILLYTMLAGYTPFANGPSDTPEEILTRIGSGKFTLSGGNWNTVSETAKDLVSKMLHVDPHQRLTAKQVLQHPWVTQKDKLPQSQLSHQDLQLVKGAMAATYSALNSSKPTPQLKPIESSILAQRRVRKLPSTTL
B5: Plasma membrane calcium-transporting ATPase 1 (Homo sapiens), P20020 (parent)
chain: MGDMANNSVAYSGVKNSLKEANHDGDFGITLAELRALMELRSTDALRKIQESYGDVYGICTKLKTSPNEGLSGNPADLERREAVFGKNFIPPKKPKTFLQLVWEALQDVTLIILEIAAIVSLGLSFYQPPEGDNALCGEVSVGEEEGEGETGWIEGAAILLSVVCVVLVTAFNDWSKEKQFRGLQSRIEQEQKFTVIRGGQVIQIPVADITVGDIAQVKYGDLLPADGILIQGNDLKIDESSLTGESDHVKKSLDKDPLLLSGTHVMEGSGRMVVTAVGVNSQTGIIFTLLGAGGEEEEKKDEKKKEKKNKKQDGAIENRNKAKAQDGAAMEMQPLKSEEGGDGDEKDKKKANLPKKEKSVLQGKLTKLAVQIGKAGLLMSAITVIILVLYFVIDTFWVQKRPWLAECTPIYIQYFVKFFIIGVTVLVVAVPEGLPLAVTISLAYSVKKMMKDNNLVRHLDACETMGNATAICSDKTGTLTMNRMTVVQAYINEKHYKKVPEPEAIPPNILSYLVTGISVNCAYTSKILPPEKEGGLPRHVGNKTECALLGLLLDLKRDYQDVRNEIPEEALYKVYTFNSVRKSMSTVLKNSDGSYRIFSKGASEIILKKCFKILSANGEAKVFRPRDRDDIVKTVIEPMASEGLRTICLAFRDFPAGEPEPEWDNENDIVTGLTCIAVVGIEDPVRPEVPDAIKKCQRAGITVRMVTGDNINTARAIATKCGILHPGEDFLCLEGKDFNRRIRNEKGEIEQERIDKIWPKLRVLARSSPTDKHTLVKGIIDSTVSDQRQVVAVTGDGTNDGPALKKADVGFAMGIAGTDVAKEASDIILTDDNFTSIVKAVMWGRNVYDSISKFLQFQLTVNVVAVIVAFTGACITQDSPLKAVQMLWVNLIMDTLASLALATEPPTESLLLRKPYGRNKPLISRTMMKNILGHAFYQLVVVFTLLFAGEKFFDIDSGRNAPLHAPPSEHYTIVFNTFVLMQLFNEINARKIHGERNVFEGIFNNAIFCTIVLGTFVVQIIIVQFGGKPFSCSELSIEQWLWSIFLGMGTLLWGQLISTIPTSRLKFLKEAGHGTQKEEIPEEELAEDVEEIDHAERELRRGQILWFRGLNRIQTQIRVVNAFRSSLYEGLEKPESRSSIHNFMTHPEFRIEDSEPHIPLIDDTDAEDDAPTKRNSSPPPSPNKNNNAVDSGIHLTIEMNKSATSSSPGSPLHSLETSL

Variants of: B1
Conditions: with scrib_human SCRIB
Target sequence in this assay (Q14160 whole entry): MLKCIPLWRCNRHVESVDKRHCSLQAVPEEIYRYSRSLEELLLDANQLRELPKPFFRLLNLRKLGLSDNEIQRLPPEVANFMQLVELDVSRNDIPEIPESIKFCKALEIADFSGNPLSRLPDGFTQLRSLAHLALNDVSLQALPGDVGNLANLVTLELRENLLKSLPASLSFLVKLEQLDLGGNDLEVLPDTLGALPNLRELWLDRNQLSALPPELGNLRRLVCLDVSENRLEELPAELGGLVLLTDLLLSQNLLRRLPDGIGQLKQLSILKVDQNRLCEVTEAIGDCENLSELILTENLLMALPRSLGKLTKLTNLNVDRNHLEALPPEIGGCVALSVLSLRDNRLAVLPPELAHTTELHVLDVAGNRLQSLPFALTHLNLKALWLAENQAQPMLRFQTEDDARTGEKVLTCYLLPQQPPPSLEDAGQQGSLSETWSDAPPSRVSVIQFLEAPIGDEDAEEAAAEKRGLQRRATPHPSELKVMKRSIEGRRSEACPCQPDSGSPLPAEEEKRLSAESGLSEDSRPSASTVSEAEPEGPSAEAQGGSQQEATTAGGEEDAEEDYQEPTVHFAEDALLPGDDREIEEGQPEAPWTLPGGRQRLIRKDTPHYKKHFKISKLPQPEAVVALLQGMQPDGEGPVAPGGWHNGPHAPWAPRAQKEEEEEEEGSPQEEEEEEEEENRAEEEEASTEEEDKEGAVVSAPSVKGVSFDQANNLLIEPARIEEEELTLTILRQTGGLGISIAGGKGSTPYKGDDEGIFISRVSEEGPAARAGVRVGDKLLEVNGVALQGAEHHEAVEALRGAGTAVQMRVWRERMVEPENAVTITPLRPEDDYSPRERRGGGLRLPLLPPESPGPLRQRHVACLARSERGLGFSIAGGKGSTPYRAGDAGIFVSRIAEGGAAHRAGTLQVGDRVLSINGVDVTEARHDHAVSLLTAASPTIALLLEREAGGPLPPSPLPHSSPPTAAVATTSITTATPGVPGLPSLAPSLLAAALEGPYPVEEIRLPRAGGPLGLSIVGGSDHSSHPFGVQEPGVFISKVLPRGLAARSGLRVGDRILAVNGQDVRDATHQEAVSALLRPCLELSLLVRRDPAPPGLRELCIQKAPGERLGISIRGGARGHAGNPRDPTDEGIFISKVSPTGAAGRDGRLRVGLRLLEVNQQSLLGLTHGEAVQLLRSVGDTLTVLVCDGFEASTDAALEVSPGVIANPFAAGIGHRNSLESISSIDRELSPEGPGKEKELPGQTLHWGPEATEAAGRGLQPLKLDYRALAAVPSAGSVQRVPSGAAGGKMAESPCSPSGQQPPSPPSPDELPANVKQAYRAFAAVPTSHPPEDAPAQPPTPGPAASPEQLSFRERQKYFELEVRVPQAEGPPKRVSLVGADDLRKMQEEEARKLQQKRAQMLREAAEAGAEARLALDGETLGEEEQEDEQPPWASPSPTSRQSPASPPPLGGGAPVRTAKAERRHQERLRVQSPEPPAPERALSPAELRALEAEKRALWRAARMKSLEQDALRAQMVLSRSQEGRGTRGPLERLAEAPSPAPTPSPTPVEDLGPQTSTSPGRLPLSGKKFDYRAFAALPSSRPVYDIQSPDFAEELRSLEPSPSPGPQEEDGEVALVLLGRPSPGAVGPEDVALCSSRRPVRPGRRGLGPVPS

| effect of a mutation on the interaction | Variant |
| --- | --- |
| decreasing interaction strength | MPPMPSAPPVHPPPDGGWGWIVVGAAFISIGFSYAFPKAVTVFFKEIQQIFHTTYSEIAWISSIMLAVMYAGGPVSSVLVNKYGSRPVVIAGGLLCCLGMVLASFSSSVVQLYLTMGFITGLGLAFNLQPALTIIGKYFYRKRPMANGLAMAGSPVFLSSLAPFNQYLFNTFGWKGSFLILGSLLLNACVAGSLMRPLGPNQTTSKSKNKTGKTEDDSSPKKIKTKKSTWEKVNKYLDFSLFKHRGFLIYLSGNVIMFLGFFAPIIFLAPYAKDQGIDEYSAAFLLSVMAFVDMFARPSVGLIANSKYIRPRIQYFFSFAIMFNGVCHLLCPLAQDYTSLVLYAVFFGLGFGSVSSVLFETLMDLVGAPRFSSAVGLVTIVECGPVLLGPPLAGKLVDLTGEYKYMYMSCGAIVVAASVWLLIGNAINYRLLAKERKEENARQKTRESEPLSKSKHSEDVNVKVSNAQSVTEERETNI [S472E] |

Variants of: B2
Conditions: with scrib_human SCRIB
Target sequence in this assay (Q14160 whole entry): as the sequence (Q14160 whole entry) above

| effect of a mutation on the interaction | Variant |
| --- | --- |
| decreasing interaction strength | MSVTGFTITDEKVHLYHSIEKEKTVRHIGDLCSSHSVKKIQVGICLLLVELCERFTFFEVVCNMIPFCTIKLGYHNCQAAILNLCFIGTSILTPVFVRWLTDVYLGRNKLVYICLFLHFLGTALLSVVAFPLEDFYLGTYHAVNNIPKTEQHRLFYVALLTICLGIGGVRAIVCPLGAFGLQEYGSQKTMSFFNWFYWLMNLNATIVFLGISYIQHSQAWALVLLIPFMSMLMAVITLHMIYYNLIYQSEKRCSLLTGVGVLVSALKTCHPQYCHLGRDVTSQLDHAKEKNGGCYSELHVEDTTFFLTLLPLFIFQLLYRMCIMQIPSGYYLQTMNSNLNLDGFLLPIAVMNAISSLPLLILAPFLEYFSTCLFPSKRVGSFLSTCIIAGNLFAALSVMIAGFFEIHRKHFPAVEQPLSGKVLTVSSMPCFYLILQYVLLGVAETLVNPALSVISYRFVPSNVRGTSMNFLTLFNGFGCFTGALLVKLVYLISDGNWFPNTLNKGNLESFFFFLASLTLLNVLGFCSVSQRYCNLNHFNAQNIRGSNLEETLLLHEKSLKFYGSIQEFSSEIDLWETAL [S571E] |

Variants of: B3
Conditions: with scrib_human SCRIB
Target sequence in this assay (Q14160 whole entry): as the sequence (Q14160 whole entry) above

| effect of a mutation on the interaction | Variant |
| --- | --- |
| increasing interaction strength | S828E |

Variants of: B3
Conditions: with shan1_human SHANK1, Q9Y566
Chain of shan1_human SHANK1, Q9Y566 (Q9Y566 whole entry): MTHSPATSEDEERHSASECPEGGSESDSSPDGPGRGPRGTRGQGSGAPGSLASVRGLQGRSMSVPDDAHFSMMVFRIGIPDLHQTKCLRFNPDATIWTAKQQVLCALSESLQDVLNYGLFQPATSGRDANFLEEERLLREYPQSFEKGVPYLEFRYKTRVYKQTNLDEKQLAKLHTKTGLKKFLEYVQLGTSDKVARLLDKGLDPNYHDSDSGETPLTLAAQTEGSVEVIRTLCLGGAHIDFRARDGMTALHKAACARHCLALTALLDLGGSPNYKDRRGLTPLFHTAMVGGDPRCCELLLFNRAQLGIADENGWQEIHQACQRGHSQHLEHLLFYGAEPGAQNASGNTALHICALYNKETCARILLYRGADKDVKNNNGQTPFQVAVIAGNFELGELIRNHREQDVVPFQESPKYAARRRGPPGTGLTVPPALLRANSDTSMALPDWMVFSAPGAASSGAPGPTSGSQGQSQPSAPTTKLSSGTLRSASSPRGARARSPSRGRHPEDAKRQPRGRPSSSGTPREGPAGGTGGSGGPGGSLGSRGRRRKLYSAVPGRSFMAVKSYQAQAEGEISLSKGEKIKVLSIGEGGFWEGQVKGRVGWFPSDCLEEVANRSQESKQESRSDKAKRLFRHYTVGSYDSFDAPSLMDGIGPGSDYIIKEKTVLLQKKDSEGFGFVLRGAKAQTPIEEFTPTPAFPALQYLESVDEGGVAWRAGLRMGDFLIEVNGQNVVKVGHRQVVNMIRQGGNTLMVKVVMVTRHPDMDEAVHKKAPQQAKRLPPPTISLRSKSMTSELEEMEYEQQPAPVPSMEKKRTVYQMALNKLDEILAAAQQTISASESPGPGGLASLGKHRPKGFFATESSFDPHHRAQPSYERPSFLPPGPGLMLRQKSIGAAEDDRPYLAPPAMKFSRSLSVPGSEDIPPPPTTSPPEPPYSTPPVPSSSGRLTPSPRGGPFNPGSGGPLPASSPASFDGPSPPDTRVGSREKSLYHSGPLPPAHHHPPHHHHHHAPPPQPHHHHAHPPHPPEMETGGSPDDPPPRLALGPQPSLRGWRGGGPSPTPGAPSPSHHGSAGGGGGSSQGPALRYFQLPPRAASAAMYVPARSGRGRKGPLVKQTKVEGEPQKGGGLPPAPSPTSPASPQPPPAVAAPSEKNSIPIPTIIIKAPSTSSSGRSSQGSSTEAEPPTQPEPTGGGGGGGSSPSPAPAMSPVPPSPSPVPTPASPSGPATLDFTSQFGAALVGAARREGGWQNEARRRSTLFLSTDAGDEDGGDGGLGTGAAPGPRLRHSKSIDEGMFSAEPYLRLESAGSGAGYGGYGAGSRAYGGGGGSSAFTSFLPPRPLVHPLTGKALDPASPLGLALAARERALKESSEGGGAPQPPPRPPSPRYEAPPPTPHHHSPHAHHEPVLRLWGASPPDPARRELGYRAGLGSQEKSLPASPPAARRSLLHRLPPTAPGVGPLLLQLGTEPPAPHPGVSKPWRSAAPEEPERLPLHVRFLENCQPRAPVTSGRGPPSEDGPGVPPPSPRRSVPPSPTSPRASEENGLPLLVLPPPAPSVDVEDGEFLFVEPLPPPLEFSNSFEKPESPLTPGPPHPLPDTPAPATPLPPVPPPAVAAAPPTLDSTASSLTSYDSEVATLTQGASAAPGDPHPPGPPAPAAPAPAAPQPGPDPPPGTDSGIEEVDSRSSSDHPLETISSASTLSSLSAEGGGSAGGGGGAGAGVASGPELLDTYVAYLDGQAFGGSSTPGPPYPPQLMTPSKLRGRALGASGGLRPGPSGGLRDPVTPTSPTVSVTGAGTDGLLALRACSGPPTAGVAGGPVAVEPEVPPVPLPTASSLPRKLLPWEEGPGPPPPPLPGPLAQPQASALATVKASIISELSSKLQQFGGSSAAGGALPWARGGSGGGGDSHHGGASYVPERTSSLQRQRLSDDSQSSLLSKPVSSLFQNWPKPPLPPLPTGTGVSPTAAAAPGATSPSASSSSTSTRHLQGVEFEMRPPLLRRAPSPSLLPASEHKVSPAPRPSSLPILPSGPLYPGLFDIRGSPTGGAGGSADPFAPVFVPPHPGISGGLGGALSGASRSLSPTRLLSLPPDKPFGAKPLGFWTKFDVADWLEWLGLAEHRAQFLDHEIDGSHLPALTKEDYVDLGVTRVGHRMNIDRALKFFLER

| effect of a mutation on the interaction | Variant |
| --- | --- |
| decreasing interaction strength | S828E |

Variants of: B3
Conditions: with dlg1_human DLG1, Q12959
Chain of dlg1_human DLG1, Q12959 (Q12959 whole entry, looked up): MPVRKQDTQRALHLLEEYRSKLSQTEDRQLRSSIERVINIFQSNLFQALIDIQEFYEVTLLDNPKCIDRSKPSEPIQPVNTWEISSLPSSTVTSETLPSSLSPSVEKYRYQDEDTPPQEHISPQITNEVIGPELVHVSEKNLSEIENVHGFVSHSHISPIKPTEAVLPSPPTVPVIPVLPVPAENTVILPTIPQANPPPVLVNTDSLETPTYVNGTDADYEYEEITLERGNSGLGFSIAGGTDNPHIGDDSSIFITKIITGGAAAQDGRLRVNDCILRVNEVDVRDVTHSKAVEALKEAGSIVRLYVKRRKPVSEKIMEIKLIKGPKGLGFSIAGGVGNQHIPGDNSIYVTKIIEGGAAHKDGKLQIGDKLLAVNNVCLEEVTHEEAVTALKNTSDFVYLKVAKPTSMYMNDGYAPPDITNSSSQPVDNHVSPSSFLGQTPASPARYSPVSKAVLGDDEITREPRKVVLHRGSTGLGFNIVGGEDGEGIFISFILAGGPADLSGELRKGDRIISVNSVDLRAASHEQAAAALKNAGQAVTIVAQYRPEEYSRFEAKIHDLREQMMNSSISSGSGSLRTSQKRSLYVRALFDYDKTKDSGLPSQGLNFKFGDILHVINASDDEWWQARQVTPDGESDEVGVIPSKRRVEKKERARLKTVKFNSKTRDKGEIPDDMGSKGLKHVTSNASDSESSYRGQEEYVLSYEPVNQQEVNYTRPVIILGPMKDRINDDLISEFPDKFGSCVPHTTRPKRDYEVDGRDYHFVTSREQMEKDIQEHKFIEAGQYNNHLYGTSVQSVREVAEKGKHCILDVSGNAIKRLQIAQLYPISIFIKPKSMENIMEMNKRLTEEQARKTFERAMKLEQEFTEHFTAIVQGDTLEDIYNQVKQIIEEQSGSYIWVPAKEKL

| effect of a mutation on the interaction | Variant |
| --- | --- |
| decreasing interaction strength | S828E |

Variants of: B4
Conditions: with scrib_human SCRIB
Target sequence in this assay (Q14160 whole entry): as the sequence (Q14160 whole entry) above

| effect of a mutation on the interaction | Variant |
| --- | --- |
| increasing interaction strength | S732E;T734E |
| increasing interaction strength | S732E |

Variants of: B5
Conditions: with scrib_human SCRIB
Target sequence in this assay (Q14160 whole entry): as above

| effect of a mutation on the interaction | Variant |
| --- | --- |
| increasing interaction strength | S1219E |

Variants of: B5
Conditions: with scrib_human SCRIB
Remark: another data set of the same source
Target sequence in this assay (Q14160 whole entry): as above

| effect of a mutation on the interaction | Variant |
| --- | --- |
| increasing interaction strength | S1215E;S1219E |
